System: K4 kissing-loop RNA reporter
Experiment: apparent KD of K4 kissing-loop reporter; higher = weaker reporter binding
Settings: Eterna round: R107
Experimental: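 RNA-MaP round R107: designed RNA switches with theophylline, tryptophan, arginine or FMN aptamers are transcribed on-chip within common flanks. They are titrated with a labelled K4 kissing-loop RNA reporter in RNA-MaP buffer (100 mM Tris pH 7.5, 80 mM KCl, 4 mM MgCl2), without ligand or with the indicated ligand. Median apparent KD per design.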

[1] = input ligand: theophylline 20 uM
[2] = input ligand: tryptophan 2.4 mM
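Further: bound reporter read as fluorescence of individual clusters on recovered sequencing chips by microscopy, with normalized cluster intensities fitted with a binding model.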

| Sequence | apparent KD of K4 kissing-loop reporter (input ligand: FMN 200 uM) [µM] | apparent KD of K4 kissing-loop reporter (input ligand: arginine 13.2 mM) [µM] | apparent KD of K4 kissing-loop reporter (input ligand: none) [µM] | apparent KD of K4 kissing-loop reporter [1] [µM] | apparent KD of K4 kissing-loop reporter [2] [µM] |
| --- | --- | --- | --- | --- | --- |
| GGUUAAAGCACCCGGAGUGAUGUUCCGGAUACCAGCAAACCAACUUGCCCUUGGCAGCCGUAUAGCGUCCGGUGGGCCGAGCAUA [Raarce] | 0.0949 | 0.0943 | 0.0984 | 0.0976 | 0.0927 |
| AAAGAUGCGUCGGCCGCCACUGUUGCCAGUGAUGUUGGCAUGUAGAUGCAGUGAUGUUGCGUUUUCAGGACCGGGACGUAAGAUG [5th] | 0.261 | 0.253 | 0.302 | 0.246 | 0.134 |
| UGAUAGGACAGAAGGAGCGGGAGUGAUGUUCCCAAGGAUUGGUCUAGCAAAGCUGGACCCUCCCAGGUAGGUCGCUGUCCUAUCU [ArgBX 5 #SwitchBubble #StaticStem] | 0.195 | 0.223 | 0.222 | 0.182 | 0.191 |
| AGUGAUGUGGGAAGGAGCGGUUAAUGAAUUCAGUGAUGUUGAAGUGAUGCUGAAAUGAUGUGCCAGGUAGGUCGCCUAGAUGUUA [KL-XARG B28] | 0.308 | 0.164 | 0.245 | 0.164 | 0.203 |
| GAGAGCCCUGGAGGAUAUGAGUCUAGUGAUGUUAGGCGGUCCAUGCGCGUGGCGCGUUAUGCCCUUUUAGAAGGCCAGGGCUCUC [#2 Exclusion - FMN B Attempt #18 (HarryS)] | 0.109 | 0.0685 | 0.0885 | 0.0852 | 0.0897 |
| UGCGCUAUGUCCUAAAAUGUCCUCCGGGAUACCAGAGUCUUUUUAUUCCCUUGGCAGCUUGAGUGAUGUUUGAUGCCGUUCUUGU [nnbvmullin] | 0.708 | 0.294 | 0.551 | 0.355 | 0.415 |
| ACGCGCGCGAGUGAUGUUCGGAGCGGCUGGCAGGAUAUGUAGCAAUGCAGAAGGGUCGUGGCGCGUCCAGGGUAACCUGGACGCG [#2 Exclusion - FMN A Attempt #26 (HarryS)] | 0.28 | 0.229 | 1.04 | 0.455 | 0.719 |
| AAAUAAAUGGCGGCCGCCACUGAACGCCUCCGCGUGGGUAUAUAGUGAUGUUAUAUGGCCGCCAUCAGGACCGGGCCAAAUAAAA [#08 K4 Tryptophan B Same State] | 0.33 | 0.259 | 0.502 | 0.377 | 0.222 |
| CCGUGGAGUGAUGUUCCACGUAAUACGGAUACCAGCUUUGCCAAAGGCCCUUGGCAGCCGCACGUUGCAGUGAUGUUGUGGCGCG [Same State Theophylline A G8] | 0.191 | 0.143 | 0.183 | 0.162 | 0.149 |
| AGCUAUUAGACGGCCGCCACUUGCUCUGAGACCUGACAUGGAACCAGUGAUGUUGGUUUGCGUGUAAGGACCGGGUUUGGUGGCG [Tiesbi] | 0.107 | 0.0922 | 0.0991 | 0.0887 | 0.104 |
| UGAUCUCAGUGAUGUUGAGAUCAAACUGAUACCAGUCAAUUUAGUGACCCUUGGCAGCAGUAUACCAAGGGAUCUUAUGAGAUCA [Theo A SS t5] | 0.173 | 0.152 | 0.165 | 0.162 | 0.154 |
| GCGAAAAGCAAAACGAGUGAUGUUCGAAAACGAGGACCGGUACGGCCGCCACUCGAAAACGUCUGCGUGGGAAACUAUGUAGAUG [SS Tryptophan A - 1] | 0.511 | 0.569 | 0.698 | 0.59 | 0.302 |
| UGCGCUGCCUGAGGAUAUAGAAACGAGUGAUGUUCGUGGAUAAGAGCCAGUGAUGUUGGGUUAUUUCUAGAAGGCAGGCAAAGUA [Exclusion FMN B GF7] | 0.108 | 0.0982 | 0.117 | 0.0934 | 0.104 |
| AGACUACCACACUGUCAAUAGACAGUGAACUCGGAUAUGCUGAUAAGCAGAAGGAGUGAUGUUCCUAGGUAGUCAAUAAAAUAAU [FmnAX 13 C32] | 0.16 | 0.242 | 0.376 | 0.37 | 0.359 |
| GAAUUAUGUAGAAGGAGCGUUAGAAGGUAUAGGUGCGAGUGAUGUUUGGAUUUGUUAAUUUGACAGGUAGGUCGCUACAGAAGGA [KL-SSArg B18 #analogue] | 0.946 | 0.259 | 0.567 | 0.205 | 0.306 |
| CACGAUGAAUUCUCUAGGAGUGAUGUUUUUCGAGGACCGGUACGGCCGCCACUCGGACCAGGAACGUGGGAGCGGCGAAAAGACU [jbmullin] | 0.665 | 0.312 | 0.93 | 0.5 | 0.343 |

| Sequence | apparent KD of K4 kissing-loop reporter (input ligand: FMN 200 uM) [µM] | apparent KD of K4 kissing-loop reporter (input ligand: arginine 13.2 mM) [µM] | apparent KD of K4 kissing-loop reporter (input ligand: none) [µM] | apparent KD of K4 kissing-loop reporter [1] [µM] | apparent KD of K4 kissing-loop reporter [2] [µM] |
| --- | --- | --- | --- | --- | --- |
| GGAUAGGACACGGCCGCCACUACCGAGGAUACUCGAAACAUUUCCUCAGAUGAGUGAUGUUCAUCUAGGACCGGGUGUCCUAUCG [KL-XTryp-B19 #analogue] | 0.125 | 0.103 | 0.118 | 0.121 | 0.131 |
| UAACCGCAGAAAGAUACCAGUGAGUGAUGUUCCUCGAUCCUGUGGUUCAUUCUCUUUACCCACCCUUGGCAGCUUCAAAUGUGAC [theeternabot_exclusion_KL_Theo_B_4] | 0.831 | 0.537 | 0.85 | 0.573 | 0.602 |
| UAACUGCAGUGAUGUUGCAGAUGUCCUGACUAGGAUAUCAGGAAACUGAGAAGGAGUCCCUUCUAAACAUCACAGAAGGAGGACA [[K1]-[K2]-[F1]'-[F1]-[F2]-[F2]'-[K]'-[F]''_Design2] | 0.491 | 0.415 | 0.434 | 0.508 | 0.442 |
| AUGUACACGAUAGUGUACUCCUAGUGAUGUUAGGAUAUGCAGAUAUGCAGAAGGGACAAGUCAUCUGACAAUAGUCGGAUGACAA [FmnAX 10 #OpenEnded #K4Early] | 0.179 | 0.0856 | 0.109 | 0.114 | 0.0915 |
| CCUUCCCUUGAUAGUGAUGUUAUCAAGGACAAGGAUAUCAUCUCAAUGAGAAGGUGUCCUUGAUAACAUGGAGGUCUGAAACAGA [Omei KL FMN A Exc C v2] | 0.279 | 0.125 | 0.132 | 0.128 | 0.139 |
| AUACAUGUAAAUCUAUAUGUAUAAUGGAGCCGAGGACCGGUACGGCCGCCACUCGGAGUAAUCGGAGUGAUGUUCCGAAAUGUAC [KL-SSTryp-A sub13] | 0.0937 | 0.119 | 0.104 | 0.123 | 0.0646 |
| UGAUACCAGACGGCCGCCACUUCCGCAAGUCAAAGACUUGCCAAGGGAAUCGUCCAGUGAUGUUGGAGGACCGGGUCUGGUAUCU [FiskerMod 4 - Jieux - Exclusion - Tryptophan B] | 0.939 | 0.516 | 1.22 | 0.525 | 0.587 |
| UUAAUAAUUCAAGGAUAUGUUUUCUAUUUCGAGUGAUGUUCGGAAUUAAUAAAUUUAAAAGAUUAUACAGAAGGUGAUAAAUAGU [Cynwulf-mod#2] | 0.0871 | 0.0929 | 0.0859 | 0.115 | 0.0811 |
| UGAUACCAGACGGCCGCCACUCCCGUAAGUCAAAGACUUACGAAGAGAGUCGUCCAGUGAUGUUGGAGGACCGGGUCUGGUAUCU [FiskerMod 12 - Jieux - Exclusion - Tryptophan B] | 0.179 | 0.143 | 0.163 | 0.138 | 0.294 |
| GGGCUGGUGCUAGGAUAUGCGAUGAAUGCUCAGGAAACCUUGAGUCCGCAGUGAUGUUGCGGCACCGCAGAAGGAGCUUAGGCUC [Esbequ] | 0.146 | 0.263 | 0.222 | 0.292 | 0.172 |
| AUGUUUUAUAAACUCAUGGUUUCGACAGAUACCAGCUUCGAGAGGAGCCCUUGGCAGCUGCAUGAGUGAUGUUCAUGUACGAAGA [KL-XTheoA7] | 0.374 | 0.356 | 0.465 | 0.415 | 0.265 |
| GUCGGCCGCGCGCAAGCGCGGCCGGCCGAUACCAGCGCGCCGGUGCGCCCUUGGCAGCGGCACCGAGUGAUGUUCGGUCAGACGA [#2 Same State - Theophylline A Attempt #6 (HarryS)] | 0.407 | 0.161 | 0.308 | 0.113 | 0.234 |
| AAGCAGUCACGCGAAGCCAUCGAAGAUGGACGAGGACCGGUACGGCCGCCACUCGGAGUGAUGUUCCGAAGACUGCAAAAUAAAA | 0.515 | 0.499 | 0.42 | 0.599 | 0.363 |
| UGUAUGUGAUUUGAUACCAGACCAGCUGGUGGUAUAUGAGUGAUGUUCAUGUUGGUGUGGGUCCCUUGGCAGCAAAUCGCAUACU [KL-SSTheoB9] | 0.242 | 0.161 | 0.237 | 0.164 | 0.183 |
| CGCGCGGGUUUGAGAGGGUUCGCGCGAAGUGAGGAUAUUUAGGGAGAAAGAAGGCACUAUAAAAUAUAGUGAUGUUAUAUAAGGG [SSFMNA.H] | 0.699 | 0.0939 | 1.11 | 0.371 | 0.342 |
| AGUGACGAGUGAUGUUCGUGAACACUGGAUACCAGCAGUCUUAUCUGCCCUUGGCAGCCAACGGGAACCGAAUGUUAAGACCUGU [theeternabot_exclusion_KL_Theo_A_4] | 0.132 | 0.114 | 0.129 | 0.149 | 0.121 |

From the supplement of paper PMC9170038
